# According to publication PMC6650976, “Experimental Insight into the Structural and Functional Roles of the ‘Black’ and ‘Gray’ Clusters in Recoverin, a Calcium Binding Protein with Four EF-Hand Motifs” (Molecules, 2019):
# How the values were obtained:
# [1] = molecular target: the molecule itself; test: cross-linking; Mg2+-loaded proteins: 0.02% glutaric aldehyde, 16 h, 20 °C, protein 1 mg/mL, 20 mM Tricine-KOH pH 7.4, 50 mM KCl, 1 mM DTT, 1 mM MgCl2, 1 mM EGTA; SDS-PAGE, Coomassie, densitometry; self-association
# Method in brief: (§1)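 Recombinant human recoverin and its modified forms were expressed in E. coli, purified, and stripped of metal ions by gel filtration. Crosslinking used 1.0 mg/mL protein with 0.02% glutaric aldehyde for 16 h at 20 °C in 20 mM Tricine-KOH pH 7.4, 50 mM KCl and 1 mM DTT, with EDTA, MgCl2/EGTA or CaCl2 added. Products were loaded at 5 µg/lane on 15% resolving SDS-PAGE. After Coomassie staining and scanning, each oligomer band was quantified in Quantity One as a percentage.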
# [2] = molecular target: the molecule itself; test: cross-linking; Ca2+-loaded proteins: 0.02% glutaric aldehyde, 16 h, 20 °C, protein 1 mg/mL, 20 mM Tricine-KOH pH 7.4, 50 mM KCl, 1 mM DTT, 1 mM CaCl2; SDS-PAGE, Coomassie, densitometry; self-association
# Method in brief: as §1
# [3] = molecular target: the molecule itself; test: cross-linking; apo-proteins: 0.02% glutaric aldehyde, 16 h, 20 °C, protein 1 mg/mL, 20 mM Tricine-KOH pH 7.4, 50 mM KCl, 1 mM DTT, 1 mM EDTA; SDS-PAGE, Coomassie, densitometry; self-association
# Method in brief: as §1
Protein,"Dimer 50 kDa, % [1] [%]","Monomer 20 kDa, % [1] [%]","Dimer 50 kDa, % [2] [%]","Monomer 20 kDa, % [2] [%]","Multimer 100–250 kDa, % [2] [%]","Trimer 70–100 kDa, % [2] [%]","Dimer 50 kDa, % [3] [%]","Monomer 20 kDa, % [3] [%]"
"recombinant wild type human recoverin (natural protein, UniProt P35243 1-200, looked up, myristoyl group at the N terminus (degree of myristoylation exceeded 89%), recoverin, human, UniProt P35243; cDNA from Y79 retinoblastoma cells, amplified with primers from the start codon to the stop codon, subcloned into pET-15b(+) by NcoI and XhoI; also called rWT; rWT recoverin; source: E. coli pET15b rec/pBB131/BL21(DE3)RILLC+, purified (phenyl-Sepharose, Toyopearl SuperQ-650M)) MGNSKSGALSKEILEELQLNTKFSEEELCSWYQSFLKDCPTGRITQQQFQSIYAKFFPDTDPKAYAQHVFRSFDSNLDGTLDFKEYVIALHMTTAGKTNQKLEWAFSLYDVDGNGTISKNEVLEIVMAIFKMITPEDVKLLPDDENTPEKRAEKIWKYFGKNDDDKLTEKEFIEGTLANKEILRLIQFEPQKVKEKMKNA",31.55 ± 0.09,68.45 ± 0.09,30.9 ± 0.4,15.5 ± 0.6,21.55 ± 0.09,32 ± 1.1,33.1 ± 1.1,66.9 ± 1.1
"human recoverin mutant F70A (natural protein, UniProt P35243 1-200, looked up, myristoylated (fraction of non-myristoylated forms did not exceed 16%), recoverin, human, UniProt P35243, N-terminal 'gray' cluster mutant; Parent construct as m1; source: E. coli, expressed and purified similarly to the rWT protein (phenyl-Sepharose, Toyopearl SuperQ-650M)) MGNSKSGALSKEILEELQLNTKFSEEELCSWYQSFLKDCPTGRITQQQFQSIYAKFFPDTDPKAYAQHVARSFDSNLDGTLDFKEYVIALHMTTAGKTNQKLEWAFSLYDVDGNGTISKNEVLEIVMAIFKMITPEDVKLLPDDENTPEKRAEKIWKYFGKNDDDKLTEKEFIEGTLANKEILRLIQFEPQKVKEKMKNA",26.9 ± 0.9,73.1 ± 0.9,29.3 ± 1.1,40.1 ± 1.8,11.4 ± 0.2,19.1 ± 0.5,29.3 ± 1.7,70.7 ± 1.7
"human recoverin mutant K119A (natural protein, UniProt P35243 1-200, looked up, myristoylated (fraction of non-myristoylated forms did not exceed 16%), recoverin, human, UniProt P35243, C-terminal 'gray' cluster mutant; Parent construct as m1; source: E. coli, expressed and purified similarly to the rWT protein (phenyl-Sepharose, Toyopearl SuperQ-650M)) MGNSKSGALSKEILEELQLNTKFSEEELCSWYQSFLKDCPTGRITQQQFQSIYAKFFPDTDPKAYAQHVFRSFDSNLDGTLDFKEYVIALHMTTAGKTNQKLEWAFSLYDVDGNGTISANEVLEIVMAIFKMITPEDVKLLPDDENTPEKRAEKIWKYFGKNDDDKLTEKEFIEGTLANKEILRLIQFEPQKVKEKMKNA",46.4 ± 5,53.6 ± 5,24.4 ± 0.6,19.5 ± 0.4,31.38 ± 0.05,24.7 ± 0.2,36.7 ± 0.8,63.3 ± 0.8
"human recoverin mutant V122A (natural protein, UniProt P35243 1-200, looked up, myristoylated (fraction of non-myristoylated forms did not exceed 16%), recoverin, human, UniProt P35243, C-terminal 'gray' cluster mutant; Parent construct as m1; source: E. coli, expressed and purified similarly to the rWT protein (phenyl-Sepharose, Toyopearl SuperQ-650M)) MGNSKSGALSKEILEELQLNTKFSEEELCSWYQSFLKDCPTGRITQQQFQSIYAKFFPDTDPKAYAQHVFRSFDSNLDGTLDFKEYVIALHMTTAGKTNQKLEWAFSLYDVDGNGTISKNEALEIVMAIFKMITPEDVKLLPDDENTPEKRAEKIWKYFGKNDDDKLTEKEFIEGTLANKEILRLIQFEPQKVKEKMKNA",35.3 ± 0.9,64.7 ± 0.9,27.1 ± 1.3,15.8 ± 0.2,26.7 ± 2.1,30.3 ± 0.6,27 ± 1.2,73 ± 1.2
"human recoverin mutant Q46A (natural protein, UniProt P35243 1-200, looked up, myristoylated (fraction of non-myristoylated forms did not exceed 16%), recoverin, human, UniProt P35243, N-terminal 'gray' cluster mutant; Parent construct as m1; source: E. coli, expressed and purified similarly to the rWT protein (phenyl-Sepharose, Toyopearl SuperQ-650M)) MGNSKSGALSKEILEELQLNTKFSEEELCSWYQSFLKDCPTGRITAQQFQSIYAKFFPDTDPKAYAQHVFRSFDSNLDGTLDFKEYVIALHMTTAGKTNQKLEWAFSLYDVDGNGTISKNEVLEIVMAIFKMITPEDVKLLPDDENTPEKRAEKIWKYFGKNDDDKLTEKEFIEGTLANKEILRLIQFEPQKVKEKMKNA",30.2 ± 0.5,69.8 ± 0.5,27.3 ± 1.5,31.9 ± 1.9,18.4 ± 0.6,22.3 ± 1,35.1 ± 1.8,64.9 ± 1.8
"human recoverin mutant F49A (natural protein, UniProt P35243 1-200, looked up, myristoylated (fraction of non-myristoylated forms did not exceed 16%), recoverin, human, UniProt P35243, N-terminal 'gray' cluster mutant; Parent construct as m1; source: E. coli, expressed and purified similarly to the rWT protein (phenyl-Sepharose, Toyopearl SuperQ-650M)) MGNSKSGALSKEILEELQLNTKFSEEELCSWYQSFLKDCPTGRITQQQAQSIYAKFFPDTDPKAYAQHVFRSFDSNLDGTLDFKEYVIALHMTTAGKTNQKLEWAFSLYDVDGNGTISKNEVLEIVMAIFKMITPEDVKLLPDDENTPEKRAEKIWKYFGKNDDDKLTEKEFIEGTLANKEILRLIQFEPQKVKEKMKNA",32.1 ± 0.5,67.9 ± 0.5,25.5 ± 0.5,30.6 ± 1.6,21.08 ± 0.09,22.8 ± 1.3,36.7 ± 1,63.3 ± 1
"human recoverin mutant F106A (natural protein, UniProt P35243 1-200, looked up, myristoylated (fraction of non-myristoylated forms did not exceed 16%), recoverin, human, UniProt P35243, C-terminal 'black' cluster mutant; Parent construct as m1; source: E. coli, expressed and purified similarly to the rWT protein (phenyl-Sepharose, Toyopearl SuperQ-650M)) MGNSKSGALSKEILEELQLNTKFSEEELCSWYQSFLKDCPTGRITQQQFQSIYAKFFPDTDPKAYAQHVFRSFDSNLDGTLDFKEYVIALHMTTAGKTNQKLEWAASLYDVDGNGTISKNEVLEIVMAIFKMITPEDVKLLPDDENTPEKRAEKIWKYFGKNDDDKLTEKEFIEGTLANKEILRLIQFEPQKVKEKMKNA",35.4 ± 1,64.6 ± 1,27.11 ± 0.08,17.9 ± 2.1,25 ± 0.8,30 ± 1.4,38 ± 0.3,62 ± 0.3
"human recoverin mutant E169A (natural protein, UniProt P35243 1-200, looked up, myristoylated (fraction of non-myristoylated forms did not exceed 16%), recoverin, human, UniProt P35243, C-terminal 'black' cluster mutant; Parent construct as m1; source: E. coli, expressed and purified similarly to the rWT protein (phenyl-Sepharose, Toyopearl SuperQ-650M)) MGNSKSGALSKEILEELQLNTKFSEEELCSWYQSFLKDCPTGRITQQQFQSIYAKFFPDTDPKAYAQHVFRSFDSNLDGTLDFKEYVIALHMTTAGKTNQKLEWAFSLYDVDGNGTISKNEVLEIVMAIFKMITPEDVKLLPDDENTPEKRAEKIWKYFGKNDDDKLTAKEFIEGTLANKEILRLIQFEPQKVKEKMKNA",33.7 ± 0.5,66.3 ± 0.5,27 ± 0.3,16.1 ± 1.5,27.2 ± 0.9,29.6 ± 0.3,38.9 ± 1.2,61.1 ± 1.2
"human recoverin mutant F172A (natural protein, UniProt P35243 1-200, looked up, myristoylated (fraction of non-myristoylated forms did not exceed 16%), recoverin, human, UniProt P35243, C-terminal 'black' cluster mutant; Parent construct as m1; source: E. coli, expressed and purified similarly to the rWT protein (phenyl-Sepharose, Toyopearl SuperQ-650M)) MGNSKSGALSKEILEELQLNTKFSEEELCSWYQSFLKDCPTGRITQQQFQSIYAKFFPDTDPKAYAQHVFRSFDSNLDGTLDFKEYVIALHMTTAGKTNQKLEWAFSLYDVDGNGTISKNEVLEIVMAIFKMITPEDVKLLPDDENTPEKRAEKIWKYFGKNDDDKLTEKEAIEGTLANKEILRLIQFEPQKVKEKMKNA",36.6 ± 0.7,63.4 ± 0.7,29.3 ± 0.2,22 ± 0.9,20 ± 0.3,28.8 ± 0.8,33.6 ± 2,66.4 ± 2
"human recoverin mutant W156A (natural protein, UniProt P35243 1-200, looked up, myristoylated (fraction of non-myristoylated forms did not exceed 16%), recoverin, human, UniProt P35243, C-terminal 'gray' cluster mutant; Parent construct as m1; source: E. coli, expressed and purified similarly to the rWT protein (phenyl-Sepharose, Toyopearl SuperQ-650M)) MGNSKSGALSKEILEELQLNTKFSEEELCSWYQSFLKDCPTGRITQQQFQSIYAKFFPDTDPKAYAQHVFRSFDSNLDGTLDFKEYVIALHMTTAGKTNQKLEWAFSLYDVDGNGTISKNEVLEIVMAIFKMITPEDVKLLPDDENTPEKRAEKIAKYFGKNDDDKLTEKEFIEGTLANKEILRLIQFEPQKVKEKMKNA",36.8 ± 0.2,63.2 ± 0.2,25 ± 1.1,20.4 ± 0.7,29.8 ± 0.9,24.8 ± 1,35.4 ± 0.8,64.6 ± 0.8
"human recoverin mutant F35A (natural protein, UniProt P35243 1-200, looked up, myristoylated (fraction of non-myristoylated forms did not exceed 16%), recoverin, human, UniProt P35243, N-terminal 'black' cluster mutant; Parent construct as m1; source: E. coli, expressed and purified similarly to the rWT protein (phenyl-Sepharose, Toyopearl SuperQ-650M)) MGNSKSGALSKEILEELQLNTKFSEEELCSWYQSALKDCPTGRITQQQFQSIYAKFFPDTDPKAYAQHVFRSFDSNLDGTLDFKEYVIALHMTTAGKTNQKLEWAFSLYDVDGNGTISKNEVLEIVMAIFKMITPEDVKLLPDDENTPEKRAEKIWKYFGKNDDDKLTEKEFIEGTLANKEILRLIQFEPQKVKEKMKNA",30.9 ± 1.9,69.1 ± 1.9,31.7 ± 0.3,37.4 ± 3.6,13.2 ± 3.3,17.78 ± 0.07,37.2 ± 0.5,62.8 ± 0.5
"human recoverin mutant F83A (natural protein, UniProt P35243 1-200, looked up, myristoylated (fraction of non-myristoylated forms did not exceed 16%), recoverin, human, UniProt P35243, N-terminal 'black' cluster mutant; Parent construct as m1; source: E. coli, expressed and purified similarly to the rWT protein (phenyl-Sepharose, Toyopearl SuperQ-650M)) MGNSKSGALSKEILEELQLNTKFSEEELCSWYQSFLKDCPTGRITQQQFQSIYAKFFPDTDPKAYAQHVFRSFDSNLDGTLDAKEYVIALHMTTAGKTNQKLEWAFSLYDVDGNGTISKNEVLEIVMAIFKMITPEDVKLLPDDENTPEKRAEKIWKYFGKNDDDKLTEKEFIEGTLANKEILRLIQFEPQKVKEKMKNA",33.8 ± 1,66.2 ± 1,28.7 ± 0.8,38.4 ± 1.4,13.2 ± 0.3,19.7 ± 0.4,35.6 ± 0.8,64.4 ± 0.8
"human recoverin mutant Y86A (natural protein, UniProt P35243 1-200, looked up, myristoylated (fraction of non-myristoylated forms did not exceed 16%), recoverin, human, UniProt P35243, N-terminal 'black' cluster mutant; Parent construct as m1; source: E. coli, expressed and purified similarly to the rWT protein (phenyl-Sepharose, Toyopearl SuperQ-650M)) MGNSKSGALSKEILEELQLNTKFSEEELCSWYQSFLKDCPTGRITQQQFQSIYAKFFPDTDPKAYAQHVFRSFDSNLDGTLDFKEAVIALHMTTAGKTNQKLEWAFSLYDVDGNGTISKNEVLEIVMAIFKMITPEDVKLLPDDENTPEKRAEKIWKYFGKNDDDKLTEKEFIEGTLANKEILRLIQFEPQKVKEKMKNA",33.9 ± 0.2,66.1 ± 0.2,28.5 ± 1.4,35.8 ± 2.7,14.2 ± 0.6,21.5 ± 0.7,30.7 ± 3,69.3 ± 3
